From patent US20130022605A1

Target: hen egg lysozyme (hen) (UniProt P00698)
Assay: ELISA on HEL at 3 mg/ml, detection with 9e10 and anti mouse IgG-HRP

hen egg lysozyme (hen), sequence (P00698 19-147): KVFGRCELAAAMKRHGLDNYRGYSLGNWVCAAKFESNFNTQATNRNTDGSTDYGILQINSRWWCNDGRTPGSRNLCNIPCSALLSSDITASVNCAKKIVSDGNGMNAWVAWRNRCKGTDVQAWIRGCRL

B1: VH Cκ chain expressed alone (TAR2-5 Cκ) (protein, not shown: small tags and cut ends)
chain: EVQLLESGGGLVQPGGSLRLSCAASGFTFDLYNMFWVRQAPGKGLEWVSFISQTGRLTWYADSVKGRFTISRDNSKNTLYLQMNSLRAEDTAVYYCAKTLEDFDYWGQGTLVTVSS
- ELISA signal (background): 0.069
